According to PMC4434323:

How the values were obtained:
[1] = target: T1, Y44A6D.3 (Y44A6D.3) (Caenorhabditis elegans) (UniProt Q9XXE0)
T1 sequence: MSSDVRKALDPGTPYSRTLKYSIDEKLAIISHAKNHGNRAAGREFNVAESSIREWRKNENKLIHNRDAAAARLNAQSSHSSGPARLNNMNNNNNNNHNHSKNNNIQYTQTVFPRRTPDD

[2] = target: T2, F13H6.1 (F13H6.1) (Caenorhabditis elegans) (UniProt H2KZR6)
T2 sequence: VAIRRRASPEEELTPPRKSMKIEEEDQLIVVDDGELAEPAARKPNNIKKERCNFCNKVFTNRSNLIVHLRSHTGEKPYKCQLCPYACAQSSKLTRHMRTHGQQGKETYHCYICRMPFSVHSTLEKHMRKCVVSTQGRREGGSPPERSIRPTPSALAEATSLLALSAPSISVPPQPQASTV

[3] = target: T3, nhr-204 (R02C2.4) (Caenorhabditis elegans) (UniProt O44543)
T3 sequence: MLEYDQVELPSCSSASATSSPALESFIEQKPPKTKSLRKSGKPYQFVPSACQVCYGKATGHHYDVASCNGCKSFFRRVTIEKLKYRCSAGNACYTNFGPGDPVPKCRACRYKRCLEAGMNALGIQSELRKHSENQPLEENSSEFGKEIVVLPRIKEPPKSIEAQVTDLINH

[4] = target: pag-3 (F45B8.4) (Caenorhabditis elegans) (UniProt G5EDE1)
Sequence of pag-3 (F45B8.4) (Caenorhabditis elegans) (G5EDE1 76-311): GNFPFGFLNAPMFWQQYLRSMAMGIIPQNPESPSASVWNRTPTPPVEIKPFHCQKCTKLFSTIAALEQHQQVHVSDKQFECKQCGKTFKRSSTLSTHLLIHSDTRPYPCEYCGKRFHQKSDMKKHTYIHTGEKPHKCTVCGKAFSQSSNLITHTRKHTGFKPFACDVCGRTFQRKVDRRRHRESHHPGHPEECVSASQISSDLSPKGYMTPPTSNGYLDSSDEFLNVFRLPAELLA

[5] = target: lin-48 (F34D10.5) (Caenorhabditis elegans) (UniProt G5EDU6)
Sequence of lin-48 (F34D10.5) (Caenorhabditis elegans) (G5EDU6 83-280): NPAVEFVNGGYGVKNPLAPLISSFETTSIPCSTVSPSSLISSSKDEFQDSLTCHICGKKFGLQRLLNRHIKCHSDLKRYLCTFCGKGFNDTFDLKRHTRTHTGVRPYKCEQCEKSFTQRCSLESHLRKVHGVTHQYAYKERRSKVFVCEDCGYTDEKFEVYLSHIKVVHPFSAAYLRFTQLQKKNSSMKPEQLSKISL

[6] = target: T4, ham-2 (C07A12.1) (Caenorhabditis elegans) (UniProt H2KYH4)
T4 sequence: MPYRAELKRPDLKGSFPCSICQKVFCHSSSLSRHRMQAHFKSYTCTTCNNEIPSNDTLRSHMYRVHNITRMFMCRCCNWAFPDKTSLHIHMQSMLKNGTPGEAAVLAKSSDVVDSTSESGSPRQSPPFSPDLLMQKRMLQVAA

[7] = target: T5, lsy-27 (F47H4.1) (Caenorhabditis elegans) (UniProt O45526)
T5 sequence: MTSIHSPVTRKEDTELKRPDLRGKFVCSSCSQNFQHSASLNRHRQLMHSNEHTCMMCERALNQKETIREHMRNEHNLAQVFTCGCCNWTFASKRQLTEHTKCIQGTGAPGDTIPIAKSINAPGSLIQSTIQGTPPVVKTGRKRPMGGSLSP

[8] = target: T6, ztf-29 (Y66D12A.12) (Caenorhabditis elegans) (UniProt Q95Q03)
T6 sequence: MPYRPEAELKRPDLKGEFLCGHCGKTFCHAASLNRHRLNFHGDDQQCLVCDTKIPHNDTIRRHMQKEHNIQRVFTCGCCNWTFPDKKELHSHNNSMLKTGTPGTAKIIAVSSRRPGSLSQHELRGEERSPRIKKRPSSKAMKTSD

ATGCGCAG (double strand) [8-mer ATGCGCAG]
binding signal (PBM E-score (-0.5 to 0.5)) [1]: 0.493

ATGCGCGG (double strand) [8-mer ATGCGCGG]
binding signal (PBM E-score (-0.5 to 0.5)) [1]: 0.494

ATTGGTCA (double strand) [8-mer ATTGGTCA]
binding signal (PBM E-score (-0.5 to 0.5)) [2]: 0.495 | binding signal (PBM E-score (-0.5 to 0.5)) [3]: 0.477

CAAATCAC (double strand) [8-mer CAAATCAC]
binding signal (PBM E-score (-0.5 to 0.5)) [4]: 0.487

CAAATCTG (double strand) [8-mer CAAATCTG]
binding signal (PBM E-score (-0.5 to 0.5)) [4]: 0.489

CAGATTTA (double strand) [8-mer CAGATTTA]
binding signal (PBM E-score (-0.5 to 0.5)) [4]: 0.489

CCGCGCAC (double strand) [8-mer CCGCGCAC]
binding signal (PBM E-score (-0.5 to 0.5)) [1]: 0.496

CCGCGCAG (double strand) [8-mer CCGCGCAG]
binding signal (PBM E-score (-0.5 to 0.5)) [1]: 0.495

CCGTTACA (double strand) [8-mer CCGTTACA]
binding signal (PBM E-score (-0.5 to 0.5)) [5]: 0.486

CCGTTATA (double strand) [8-mer CCGTTATA]
binding signal (PBM E-score (-0.5 to 0.5)) [5]: 0.494

CCGTTATC (double strand) [8-mer CCGTTATC]
binding signal (PBM E-score (-0.5 to 0.5)) [5]: 0.49

CCTGCGCA (double strand) [8-mer CCTGCGCA]
binding signal (PBM E-score (-0.5 to 0.5)) [1]: 0.493

CTGCGCAA (double strand) [8-mer CTGCGCAA]
binding signal (PBM E-score (-0.5 to 0.5)) [1]: 0.495

CTGCGCAG (double strand) [8-mer CTGCGCAG]
binding signal (PBM E-score (-0.5 to 0.5)) [1]: 0.496

GAAGCTTA (double strand) [8-mer GAAGCTTA]
binding signal (PBM E-score (-0.5 to 0.5)) [6]: 0.482 | binding signal (PBM E-score (-0.5 to 0.5)) [7]: 0.493 | binding signal (PBM E-score (-0.5 to 0.5)) [8]: 0.485

GAAGCTTC (double strand) [8-mer GAAGCTTC]
binding signal (PBM E-score (-0.5 to 0.5)) [7]: 0.496 | binding signal (PBM E-score (-0.5 to 0.5)) [8]: 0.494

GACCGTTA (double strand) [8-mer GACCGTTA]
binding signal (PBM E-score (-0.5 to 0.5)) [5]: 0.496

GAGTGACC (double strand) [8-mer GAGTGACC]
binding signal (PBM E-score (-0.5 to 0.5)) [2]: 0.496

GATGACCA (double strand) [8-mer GATGACCA]
binding signal (PBM E-score (-0.5 to 0.5)) [2]: 0.494

GCCGCGCA (double strand) [8-mer GCCGCGCA]
binding signal (PBM E-score (-0.5 to 0.5)) [1]: 0.494

GCTGCGCA (double strand) [8-mer GCTGCGCA]
binding signal (PBM E-score (-0.5 to 0.5)) [1]: 0.494

GCTTAAGC (double strand) [8-mer GCTTAAGC]
binding signal (PBM E-score (-0.5 to 0.5)) [6]: 0.493 | binding signal (PBM E-score (-0.5 to 0.5)) [7]: 0.494 | binding signal (PBM E-score (-0.5 to 0.5)) [8]: 0.491

GCTTCACC (double strand) [8-mer GCTTCACC]
binding signal (PBM E-score (-0.5 to 0.5)) [7]: 0.491

GGTGCGCA (double strand) [8-mer GGTGCGCA]
binding signal (PBM E-score (-0.5 to 0.5)) [1]: 0.493

GGTGGTCA (double strand) [8-mer GGTGGTCA]
binding signal (PBM E-score (-0.5 to 0.5)) [2]: 0.494

GTAACGGA (double strand) [8-mer GTAACGGA]
binding signal (PBM E-score (-0.5 to 0.5)) [5]: 0.485

GTCCGTTA (double strand) [8-mer GTCCGTTA]
binding signal (PBM E-score (-0.5 to 0.5)) [5]: 0.487

GTGGTCAA (double strand) [8-mer GTGGTCAA]
binding signal (PBM E-score (-0.5 to 0.5)) [2]: 0.496

GTTGACCA (double strand) [8-mer GTTGACCA]
binding signal (PBM E-score (-0.5 to 0.5)) [2]: 0.494

TAACGGGA (double strand) [8-mer TAACGGGA]
binding signal (PBM E-score (-0.5 to 0.5)) [5]: 0.49

TAACGGTA (double strand) [8-mer TAACGGTA]
binding signal (PBM E-score (-0.5 to 0.5)) [5]: 0.494

TCCGCGCA (double strand) [8-mer TCCGCGCA]
binding signal (PBM E-score (-0.5 to 0.5)) [1]: 0.495
